Measured values reported in patent US20200190473A1, “Plasmacytoid Dendritic Cells Having Immune Tolerance, and Method for Producing Same” (QURATIS INC., priority 2017, published 2020).

What was measured:
TLR2 receptor [1] = biological target: TLR2 receptor (Mus musculus, UniProt Q9QUN7); format: binding
TLR2 receptor [2] = format: binding, mouse; conditions: 5 μg/ml, 2 hours; compared to untreated group
[3] = test system: plasmacytoid dendritic cells; format: cell-based, mouse; conditions: pDC differentiated with TLR agonist on day 3, stimulated with ODN1826 (1 μg/ml), 24 hours, ELISA; vs conventional pDC

TLR2 receptor (Mus musculus, UniProt Q9QUN7), sequence (Q9QUN7 25-784): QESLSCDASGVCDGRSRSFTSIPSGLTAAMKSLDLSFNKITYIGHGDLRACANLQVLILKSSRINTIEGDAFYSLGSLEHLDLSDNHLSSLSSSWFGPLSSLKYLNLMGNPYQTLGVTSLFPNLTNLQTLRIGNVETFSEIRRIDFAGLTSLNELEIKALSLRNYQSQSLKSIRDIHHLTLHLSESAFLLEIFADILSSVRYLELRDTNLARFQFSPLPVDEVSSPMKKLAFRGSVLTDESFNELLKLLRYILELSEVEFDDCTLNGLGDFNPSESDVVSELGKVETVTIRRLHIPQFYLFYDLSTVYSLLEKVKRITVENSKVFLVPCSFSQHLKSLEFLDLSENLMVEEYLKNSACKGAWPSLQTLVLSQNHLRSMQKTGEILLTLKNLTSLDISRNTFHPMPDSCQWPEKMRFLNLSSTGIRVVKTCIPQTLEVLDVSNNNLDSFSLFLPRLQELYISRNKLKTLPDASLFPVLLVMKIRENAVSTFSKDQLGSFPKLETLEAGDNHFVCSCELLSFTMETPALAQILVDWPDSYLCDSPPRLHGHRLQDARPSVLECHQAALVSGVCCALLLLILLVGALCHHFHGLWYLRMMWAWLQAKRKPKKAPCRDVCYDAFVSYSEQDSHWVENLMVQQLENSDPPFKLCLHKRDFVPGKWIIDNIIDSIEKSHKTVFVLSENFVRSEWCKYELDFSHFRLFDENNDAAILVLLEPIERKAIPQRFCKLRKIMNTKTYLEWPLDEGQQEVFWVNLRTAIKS

B1: Rv1411c protein: His-labeled protein derived from M tuberculosis, confirmed as TLR2 agonist (protein, UniProt P9WK45 27-236, looked up)
Lipoarabinomannan carrier …: CSSGSKPSGGPLPDAKPLVEEATAQTKALKSAHMVLTVNGKIPGLSLKTLSGDLTTNPTAATGNVKLTLGGSDIDADFVVFDGILYATLTPNQWSDFGPAADIYDPAQVLNPDTGLANVLANFADAKAEGRDTINGQNTIRISGKVSAQAVNQIAPPFNATQPVPATVWIQETGDHQLAQAQLDRGSGNSVQMTLSKWGEKVQVTKPPVS
modifications: His tag
notes: His-labeled protein derived from M tuberculosis, confirmed as TLR2 agonist
- binding to TLR2 receptor (TLR2 receptor [1]): binds to the TLR2 receptor
- binding to wild-type dendritic cells (WT) (TLR2 receptor [1]): increased binding
- binding strength to TLR2 knockout-derived dendritic cells (TLR2−/−) (TLR2 receptor [2]): the same as that in the untreated experimental group
- expression level of IFN-α [3]: drastically reduced in a concentration-dependent manner
- expression level of IFN-β [3]: drastically reduced in a concentration-dependent manner
- expression level of IL-10 [3]: marked increase in a concentration-dependent manner
- expression level of IL-12p70 [3]: drastically reduced in a concentration-dependent manner
- expression level of TNF-α [3]: drastically reduced in a concentration-dependent manner
